Assay results published in PMC11633051, “Streptococcus pneumoniae GAPN is a key metabolic player necessary for host infection” (Protein Science : A Publication of the Protein Society, 2024).
Like-named read-outs stand apart in the source and are kept apart here.

Assays:
S. pneumoniae GAPN [1] = biological target: T1, S. pneumoniae GAPN (Streptococcus pneumoniae, UniProt A0A0H2ZNN4); assay: UV kinetics at […] nm, varied G3P with fixed E4P ([…]); format: biochemical
T1 construct: N-terminal 6xHis tag, pET21b (NdeI), E. coli BL21(DE3); tag removal not mentioned; homotetramer; catalytic C283

S. pneumoniae GAPN [2] = biological target: T1, S. pneumoniae GAPN; assay: isothermal titration calorimetry; format: binding
[3] = system: NC(=O)c1ccc[n+]([C@@H]2O[C@H](COP(=O)(O)OP(=O)(O)OC[C@H]3O[C@@H](n4cnc5c(N)ncnc54)[C@H](O)[C@@H]3O)[C@@H](O)[C@H]2O)c1; assay: purified protein; details: pH 8.5, 25°C, 1.0 mM G3P (Figure 2 legend says 500 μM), 20 μM GAPN, varied: cofactor
[4] = system: NC(=O)c1ccc[n+]([C@@H]2O[C@H](COP(=O)(O)OP(=O)(O)OC[C@H]3O[C@@H](n4cnc5c(N)ncnc54)[C@H](OP(=O)(O)O)[C@@H]3O)[C@@H](O)[C@H]2O)c1; assay: purified protein; details: pH 7.5, 25°C, 1.0 mM G3P, 40 nM GAPN, varied: cofactor
O=C[C@H](O)COP(=O)(O)O = assay: purified protein; details: pH 7.5, 25°C, 1.0 mM NADP+, 40 nM GAPN
[5] = biological target: the molecule itself; assay: cryo-EM structure; purified GAPN at 90 uM in 50 mM HEPES pH 7.5, 50 mM NaCl, 2 mM DTT; alone (apo), with 1 mM NADP+ (holo) or with 1 mM G3P; single particle reconstruction

Molecule `O=C[C@H](O)[C@H](O)COP(=O)(O)O` [E4P] has a Ki (S. pneumoniae GAPN [1]) of 25.7 ± 7.2 µM.

Molecule `O=C[C@H](O)COP(=O)(O)O` [G3P] has a Kd (S. pneumoniae GAPN [2]; read-out: K D) of 0.053 ± 0.036 µM.

For `NC(=O)c1ccc[n+]([C@@H]2O[C@H](COP(=O)(O)OP(=O)(O)OC[C@H]3O[C@@H](n4cnc5c(N)ncnc54)[C@H](OP(=O)(O)O)[C@@H]3O)[C@@H](O)[C@H]2O)c1` [NADP^+], the Kd (S. pneumoniae GAPN [2]) was 51 ± 32 µM.

For “S. pneumoniae GAPN (Streptococcus pneumoniae D39)”, the Km [3] was 7200 ± 2000 µM, the kcat [3] was 0.4 ± 0.1 s⁻¹ and the Km [4] was 119 ± 12 µM. It also gave a Vmax [4] of 570 ± 20 nM/s, a kcat [4] of 14.2 ± 0.6 s⁻¹ and a Km (O=C[C@H](O)COP(=O)(O)O) of 88 ± 17 µM. For the same molecule, the Vmax (O=C[C@H](O)COP(=O)(O)O) was 580 ± 30 nM/s and the kcat (O=C[C@H](O)COP(=O)(O)O) was 14.5 ± 0.7 s⁻¹.

B1: Streptococcus pneumoniae GAPN (non-phosphorylating glyceraldehyde-3-phosphate dehydrogenase) (enzyme, S. pneumoniae strain D39)
chain: MTRYQNLVNGKWKSSEQEITIYSPINQEELGTVPAMTQTEADEAMQAARAALPAWRALSAIERAAYLHKTAAILERDKEKIGTILAKEVAKGIKAAIGEVVRTADLIRYAAEEGLRITGQAMEGGGFEAASKNKLAVVRREPVGIVLAIAPFNYPVNLSASKIAPALIAGNVVMLKPPTQGSISGLLLAKAFEEAGIPAGVFNTITGRGSEIGDYIIEHKEVNFINFTGSTPIGERIGRLAGMRPIMLELGGKDAALVLEDADLEHAAKQIVAGAFSYSGQRCTAIKRVIVLESVADKLATLLQEEVSKLTVGDPFDNADITPVIDNASADFIWGLIEDAQEKEAQALTPIKREGNLLWPVLFDQVTKDMKVAWEEPFGPVLPIIRVASVEEAIAFANESEFGLQSSVFTNDFKKAFEIAEKLEVGTVHINNKTQRGPDNFPFLGVKGSGAGVQGIKYSIEAMTNVKSIVFDVK
notes: GAPN, non-phosphorylating glyceraldehyde-3-phosphate dehydrogenase of S. pneumoniae strain D39; gapn gene PCR amplified from genomic DNA; UniProt A0A0H2ZNN4_STRP2; The gene was inserted with an N-terminal 6xHis tag into NdeI-cleaved pET21b; Homotetramer in the cryo-EM structures
With B1 the “stoichiometry N” value [5] was 4.
